Experimental data reported in patent US10766960 (dated 2020).
Where two headings read alike, the source gives them in different places. Each block holds one binder with its values, some of them ahead of it.

Legend:
Assay in all cases: SPR
[1] = molecular target: T1, FcgRIIIa V (human, UniProt P08637)
[2] = molecular target: T2, FcgRIIIa F (human, UniProt P08637)
[3] = molecular target: T3, FcgRIIa R (human, UniProt P12318)
T3 chain: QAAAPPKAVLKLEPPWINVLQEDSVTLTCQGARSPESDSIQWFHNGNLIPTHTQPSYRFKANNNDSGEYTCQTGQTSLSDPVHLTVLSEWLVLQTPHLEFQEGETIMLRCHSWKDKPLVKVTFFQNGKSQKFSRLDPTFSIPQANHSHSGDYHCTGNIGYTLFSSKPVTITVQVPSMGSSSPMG

[4] = molecular target: T2, FcgRIIIa F; remark: listed apart in the source
[5] = molecular target: T3, FcgRIIa R
[6] = molecular target: T1, FcgRIIIa V; remark: listed apart in the source
[7] = molecular target: T4, FcgRIIb (human, UniProt P31994)
T4 chain: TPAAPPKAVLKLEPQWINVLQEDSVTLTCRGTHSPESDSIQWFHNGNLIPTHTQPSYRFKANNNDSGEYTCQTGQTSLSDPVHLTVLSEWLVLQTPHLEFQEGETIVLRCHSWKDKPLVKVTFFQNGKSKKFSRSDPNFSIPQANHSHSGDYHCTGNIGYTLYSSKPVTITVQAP

[8] = molecular target: T2, FcgRIIIa F; remark: listed apart in the source
[9] = molecular target: T1, FcgRIIIa V; remark: listed apart in the source
[10] = molecular target: T4, FcgRIIb
[11] = molecular target: T3, FcgRIIa R
[12] = molecular target: T5, FcgRIa (human, UniProt P12314)
T5 chain: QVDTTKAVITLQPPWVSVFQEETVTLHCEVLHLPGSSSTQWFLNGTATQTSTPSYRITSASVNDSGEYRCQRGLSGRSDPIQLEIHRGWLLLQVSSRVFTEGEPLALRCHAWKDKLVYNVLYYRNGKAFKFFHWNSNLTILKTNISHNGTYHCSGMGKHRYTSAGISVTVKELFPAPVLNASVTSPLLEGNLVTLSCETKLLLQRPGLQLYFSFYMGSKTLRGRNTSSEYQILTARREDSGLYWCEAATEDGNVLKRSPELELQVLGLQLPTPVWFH

[13] = molecular target: T6, FcgRIIa H (human, UniProt P12318)
T6 chain: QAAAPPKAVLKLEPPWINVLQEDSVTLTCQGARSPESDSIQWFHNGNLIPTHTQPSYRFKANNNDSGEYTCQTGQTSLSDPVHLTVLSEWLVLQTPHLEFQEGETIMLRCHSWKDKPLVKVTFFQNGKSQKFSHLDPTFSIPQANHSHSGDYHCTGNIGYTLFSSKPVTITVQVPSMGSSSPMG

[14] = molecular target: T6, FcgRIIa H
[15] = molecular target: T6, FcgRIIa H
[16] = molecular target: T4, FcgRIIb
[17] = molecular target: T5, FcgRIa
[18] = molecular target: T5, FcgRIa
[19] = molecular target: T3, FcgRIIa R
[20] = molecular target: T6, FcgRIIa H
[21] = molecular target: T1, FcgRIIIa V; remark: listed apart in the source
[22] = molecular target: T5, FcgRIa
[23] = molecular target: T2, FcgRIIIa F; remark: listed apart in the source
[24] = molecular target: T4, FcgRIIb

T1 sequence (P08637 17-208 F176V): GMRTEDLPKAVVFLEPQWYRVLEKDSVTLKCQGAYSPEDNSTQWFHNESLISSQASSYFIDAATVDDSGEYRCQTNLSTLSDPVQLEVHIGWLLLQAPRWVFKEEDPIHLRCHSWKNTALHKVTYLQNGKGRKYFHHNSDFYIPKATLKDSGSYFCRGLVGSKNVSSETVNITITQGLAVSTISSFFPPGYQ
T2 sequence (P08637 17-208): as the sequence (P08637 17-208 F176V) above, with V160F counted along it

Kd [1]: 0.36 nM
Kd [2]: 2.4 nM
Kd [3]: 20 nM
Kd [4]: 2.2 nM
Kd [5]: 17 nM
Kd [6]: 0.66 nM
Kd [7]: 150 nM
Kd [8]: 2.4 nM
Kd [9]: 0.33 nM
Kd [10]: 150 nM
Kd [11]: 23 nM
Kd [12]: 0.37 nM
Kd [13]: 41 nM
Kd [14]: 44 nM
Kd [15]: 59 nM
Kd [16]: 150 nM
Kd [17]: 0.11 nM
Kd [18]: 0.16 nM
B1: H240-Kn120/H240-Hl068/L73-k0 (antibody)
chain 1: QDQLVQSGAEVKKPGASVKVSCKASGFNIKDTYIQWVRQAPGQGLEWMGRIDPLRKQTKYREKFEGRVTITADTSTNTAYMELSSLRSEDTAVYYCVRSGREFDYWGQGTLVTVSSASTKGPSVFPLAPSSKSTSGGTAALGCLVKDYFPEPVTVSWNSGALTSGVHTFPAVLQSSGLYSLSSVVTVPSSSLGTQTYICNVNHKPSNTKVDKKVEPKSCDKTHTCPPCPAPEYYWGPMVFLFPPKPKDTLMISRTPEVTCVVVDVSDEDPEVKFNWYVDGVEVHNAKTKPREEQYNATYRVVSVLTVLHQDWLNGKEYKCKVSNKDLPAPIEKTISKAKGQPREPQVCTLPPSRDELTKNQVSLWCLVKGFYPSDIAVEWESNGQPENNYKTTPPVLDSDGSFFLYSKLTVDKSRWQQGNVFSCSVMHEALHNHYTQKSLSLSP
chain 2: QDQLVQSGAEVKKPGASVKVSCKASGFNIKDTYIQWVRQAPGQGLEWMGRIDPLRKQTKYREKFEGRVTITADTSTNTAYMELSSLRSEDTAVYYCVRSGREFDYWGQGTLVTVSSASTKGPSVFPLAPSSKSTSGGTAALGCLVKDYFPEPVTVSWNSGALTSGVHTFPAVLQSSGLYSLSSVVTVPSSSLGTQTYICNVNHKPSNTKVDKKVEPKSCDKTHTCPPCPAPELLGGPSVFLFPPKPKDTLMISRTPEVTCVVVDVSHEEPEVKFNWYVDGVEVHNAKTKPREEQYNSTYRVVSVLTVLHQDWLNGKEYKCKVSNDALPKPIEETISKAKGQPREPQVYTLPPSRCELTKNQVSLSCAVKGFYPSDIAVEWESNGQPENNYKTTPPVLDSDGSFFLVSKLTVDKSRWQQGNVFSCSVMHEALHNHYTQKSLSLSP
chain 3: DIQMTQSPSSLSASVGDRVTITCRASQDIHKYIAWYQQKPGQAPRLLIQYTSTLQPGVPSRFSGSGSGTDYTFTISSLQPEDIATYYCLQYEQLRTFGGGTKVEIKRTVAAPSVFIFPPSDEQLKSGTASVVCLLNNFYPREAKVQWKVDNALQSGNSQESVTEQDSKDSTYSLSSTLTLSKADYEKHKVYACEVTHQGLSSPVTKSFNRGEC

Kd [19]: 16 nM
Kd [20]: 39 nM
Kd [21]: 0.77 nM
Kd [22]: 0.13 nM
Kd [23]: 2.1 nM
Kd [24]: 200 nM
B2: H240-Kn229/H240-Hl068/L73-k0 (antibody)
chain 1: QDQLVQSGAEVKKPGASVKVSCKASGFNIKDTYIQWVRQAPGQGLEWMGRIDPLRKQTKYREKFEGRVTITADTSTNTAYMELSSLRSEDTAVYYCVRSGREFDYWGQGTLVTVSSASTKGPSVFPLAPSSKSTSGGTAALGCLVKDYFPEPVTVSWNSGALTSGVHTFPAVLQSSGLYSLSSVVTVPSSSLGTQTYICNVNHKPSNTKVDKKVEPKSCDKTHTCPPCPAPEYYWGPIVFLFPPKPKDTLMISRTPEVTCVVVDVSDEDPEVKFNWYVDGVEVHNAKTKPREEQYNATYRVVSVLTVLHQDWLNGKEYKCKVSNKDLPAPIEKTISKAKGQPREPQVCTLPPSRDELTKNQVSLWCLVKGFYPSDIAVEWESNGQPENNYKTTPPVLDSDGSFFLYSKLTVDKSRWQQGNVFSCSVMHEALHNHYTQKSLSLSP
chain 2: QDQLVQSGAEVKKPGASVKVSCKASGFNIKDTYIQWVRQAPGQGLEWMGRIDPLRKQTKYREKFEGRVTITADTSTNTAYMELSSLRSEDTAVYYCVRSGREFDYWGQGTLVTVSSASTKGPSVFPLAPSSKSTSGGTAALGCLVKDYFPEPVTVSWNSGALTSGVHTFPAVLQSSGLYSLSSVVTVPSSSLGTQTYICNVNHKPSNTKVDKKVEPKSCDKTHTCPPCPAPELLGGPSVFLFPPKPKDTLMISRTPEVTCVVVDVSHEEPEVKFNWYVDGVEVHNAKTKPREEQYNSTYRVVSVLTVLHQDWLNGKEYKCKVSNDALPKPIEETISKAKGQPREPQVYTLPPSRCELTKNQVSLSCAVKGFYPSDIAVEWESNGQPENNYKTTPPVLDSDGSFFLVSKLTVDKSRWQQGNVFSCSVMHEALHNHYTQKSLSLSP
chain 3: DIQMTQSPSSLSASVGDRVTITCRASQDIHKYIAWYQQKPGQAPRLLIQYTSTLQPGVPSRFSGSGSGTDYTFTISSLQPEDIATYYCLQYEQLRTFGGGTKVEIKRTVAAPSVFIFPPSDEQLKSGTASVVCLLNNFYPREAKVQWKVDNALQSGNSQESVTEQDSKDSTYSLSSTLTLSKADYEKHKVYACEVTHQGLSSPVTKSFNRGEC

Kd [19]: 490 nM
Kd [20]: 170 nM
Kd [21]: 0.19 nM
Kd [22]: 0.036 nM
Kd [23]: 1.1 nM
Kd [24]: 5200 nM
B3: H240-Kn225/H240-Hl076/L73-k0 (antibody)
chain 1: QDQLVQSGAEVKKPGASVKVSCKASGFNIKDTYIQWVRQAPGQGLEWMGRIDPLRKQTKYREKFEGRVTITADTSTNTAYMELSSLRSEDTAVYYCVRSGREFDYWGQGTLVTVSSASTKGPSVFPLAPSSKSTSGGTAALGCLVKDYFPEPVTVSWNSGALTSGVHTFPAVLQSSGLYSLSSVVTVPSSSLGTQTYICNVNHKPSNTKVDKKVEPKSCDKTHTCPPCPAPEYQWGPIVFLFPPKPKDTLMISRTPEVTCVVVDVSDEEPEVKFNWYVDGVEVHNAKTKPREEQYNATYRVVSVLTVLHQDWLNGKEYKCKVSNKALPAPIEKTISKAKGQPREPQVCTLPPSRDELTKNQVSLWCLVKGFYPSDIAVEWESNGQPENNYKTTPPVLDSDGSFFLYSKLTVDKSRWQQGNVFSCSVMHEALHNHYTQKSLSLSP
chain 2: QDQLVQSGAEVKKPGASVKVSCKASGFNIKDTYIQWVRQAPGQGLEWMGRIDPLRKQTKYREKFEGRVTITADTSTNTAYMELSSLRSEDTAVYYCVRSGREFDYWGQGTLVTVSSASTKGPSVFPLAPSSKSTSGGTAALGCLVKDYFPEPVTVSWNSGALTSGVHTFPAVLQSSGLYSLSSVVTVPSSSLGTQTYICNVNHKPSNTKVDKKVEPKSCDKTHTCPPCPAPELLGGPSVFLFPPKPKDTLMISRTPEVTCVVVDVSHEEPEVKFNWYVDGVEVHNAKTKPREEQYNSTYRVVSVLTVLHQDWLNGKEYKCKVSNDALPMPIEETISKAKGQPREPQVYTLPPSRCELTKNQVSLSCAVKGFYPSDIAVEWESNGQPENNYKTTPPVLDSDGSFFLVSKLTVDKSRWQQGNVFSCSVMHEALHNHYTQKSLSLSP
chain 3: DIQMTQSPSSLSASVGDRVTITCRASQDIHKYIAWYQQKPGQAPRLLIQYTSTLQPGVPSRFSGSGSGTDYTFTISSLQPEDIATYYCLQYEQLRTFGGGTKVEIKRTVAAPSVFIFPPSDEQLKSGTASVVCLLNNFYPREAKVQWKVDNALQSGNSQESVTEQDSKDSTYSLSSTLTLSKADYEKHKVYACEVTHQGLSSPVTKSFNRGEC
